According to patent US20120040896:

What was measured:
[1] = test system: GST-BRCA1 fusion protein T1246 (nucleotides 3714-4310)
[2] = test system: GST-BRCA1 fusion protein E509+S694 (phospho-mimic T509E mutant, nucleotides 1323-2538)
[3] = test system: purified full length BRCA1 protein (ProteinOne)
[4] = test system: GST-BRCA1 fusion protein T509 (nucleotides 1323-1886)
[5] = test system: GST-BRCA1 fusion protein S694/T696 (nucleotides 1926-2538)
[6] = test system: GST-BRCA1 fusion protein wild-type T509+S694 (nucleotides 1323-2538)
Chain of GST-BRCA1 fusion protein wild-type T509+S694 (nucleotides 1323-2538) (chain, as listed by the source): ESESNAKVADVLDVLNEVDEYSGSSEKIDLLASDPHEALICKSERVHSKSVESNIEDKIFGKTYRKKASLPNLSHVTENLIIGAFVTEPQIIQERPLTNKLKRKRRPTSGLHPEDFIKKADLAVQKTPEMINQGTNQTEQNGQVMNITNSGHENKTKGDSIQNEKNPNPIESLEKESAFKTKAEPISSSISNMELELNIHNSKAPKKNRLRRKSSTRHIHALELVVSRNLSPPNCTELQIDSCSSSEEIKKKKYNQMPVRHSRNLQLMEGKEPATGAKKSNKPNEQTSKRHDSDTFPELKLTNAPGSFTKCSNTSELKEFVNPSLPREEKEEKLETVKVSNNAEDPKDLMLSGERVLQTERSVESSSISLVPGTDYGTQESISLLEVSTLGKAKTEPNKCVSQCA

[7] = test system: GST-BRCA1 fusion protein A509+S694 (T509A mutant, nucleotides 1323-2538)
[8] = test system: GST-BRCA1 fusion protein with a T509A mutation (A509, nucleotides 1323-1886)

Chain of GST-BRCA1 fusion protein T1246 (nucleotides 3714-4310) (chain, as listed by the source): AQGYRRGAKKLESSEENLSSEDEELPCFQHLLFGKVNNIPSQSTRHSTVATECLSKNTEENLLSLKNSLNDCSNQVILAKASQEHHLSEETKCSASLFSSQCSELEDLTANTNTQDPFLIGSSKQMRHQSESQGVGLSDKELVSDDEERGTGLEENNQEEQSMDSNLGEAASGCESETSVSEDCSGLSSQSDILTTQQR
Chain of GST-BRCA1 fusion protein S694/T696 (nucleotides 1926-2538) (chain, as listed by the source): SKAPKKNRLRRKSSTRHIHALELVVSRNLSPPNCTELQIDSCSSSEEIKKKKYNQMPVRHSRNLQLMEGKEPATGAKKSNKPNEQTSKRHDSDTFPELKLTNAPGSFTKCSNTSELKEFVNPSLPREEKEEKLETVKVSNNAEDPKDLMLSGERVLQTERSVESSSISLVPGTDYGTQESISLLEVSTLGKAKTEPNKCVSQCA
Chain of GST-BRCA1 fusion protein T509 (nucleotides 1323-1886) (chain, as listed by the source): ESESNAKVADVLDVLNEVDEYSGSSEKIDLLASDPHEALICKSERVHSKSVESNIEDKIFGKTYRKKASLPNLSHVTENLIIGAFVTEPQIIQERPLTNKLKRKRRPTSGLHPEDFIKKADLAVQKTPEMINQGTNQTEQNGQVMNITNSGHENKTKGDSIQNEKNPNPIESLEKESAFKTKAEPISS

What does the source list for purified active Akt1?
in vitro Akt kinase assay (phosphorylation) [1]: T1246 did not appear to be phosphorylated; in vitro Akt kinase assay (phosphorylation signal) [2]: equally phosphorylated by Akt, with the intensity of these signals approximately equal to one half of the signal obtained with the wild-type T509+S694 construct; in vitro kinase reaction (phosphorylation) [3]: full length BRCA1 is phosphorylated by Akt in vitro; in vitro Akt kinase assay (phosphorylation) [4]: both the T509 and S694/T696 constructs were strongly phosphorylated; in vitro Akt kinase assay (phosphorylation) [5]: both the T509 and S694/T696 constructs were strongly phosphorylated; in vitro Akt kinase assay (phosphorylation signal) [6]: the signal obtained with the wild-type T509+S694 construct; in vitro Akt kinase assay (phosphorylation signal) [7]: equally phosphorylated by Akt, with the intensity of these signals approximately equal to one half of the signal obtained with the wild-type T509+S694 construct; in vitro Akt kinase assay (phosphorylation) [8]: A fusion protein with a T509A mutation was not phosphorylated
